Assay results from the supplement of paper PMC9732359.
± gives the uncertainty stated by the source.

Test: protein stability index of a GFP-peptide fusion (yeast GPS) (PSI 1-4); higher = more stable; sorted into four equal gates, so the index is relative within each strain
Conditions: doa10∆
Procedure, shortened: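 Plasmids isolated from each sorting gate were PCR-amplified and Illumina-sequenced, and barcodes assigned the reads to strains. The gates, four of equal size, were set by GFP/Cherry fluorescence ratio on mid-log cultures in leucine-free medium. These cultures were yeast carrying a pooled library of tiled 17-residue yeast protein peptides fused downstream of GFP on a plasmid that also expresses Cherry. The protein stability index is the sum of every gate's read frequency times its gate number.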

Sequence | protein stability index
ILIESRIHRLARYYRTV [RPS13] | 2.45 ± 0.11
ILKKSLMTSHTKGDTSK [RTT102] | 2.6 ± 0.11
ILKTLERSICALGEFAD [YML031W/NDC1] | 2.58 ± 0.053
ILNELEVFIGRVKDQDG [YJR042W/NUP85] | 3.06 ± 0.14
ILNSHFDALRSLDDNST [YJL041W/NSP1] | 2.36 ± 0.054
ILQIREEIPSKSWDDSV [RRP6] | 2.27 ± 0.078
ILQNEHDYWNKIMQSIS [SRB4] | 2.14 ± 0.079
ILRKSFDFLMNMPNCDY [RPN2] | 1.3 ± 0.099
ILRSIPDKLLGVILMFA [COB] | 2.35 ± 0.06
ILSEILCQINKCSTRGL [YML103C/NUP188] | 1.31 ± 0.088
ILSNVDLAMANSLRRVM [RPB3] | 2.75 ± 0.055
ILTIIEEYKKSLYAYCH [GRR1] | 2.38 ± 0.28
ILTTAVGLVSPSFMLKH [RPN1] | 1.96 ± 0.16
ILVLALEDLKDVYASKV [PRP8] | 2.29 ± 0.064
ILYSFKLSGKLLKEEKI [YML103C/NUP188] | 1.4 ± 0.059
IMELPGVYSDDELLSQL [SRP68] | 2.99 ± 0.065
IMNELYRMKGGRVTFIP [SMC3] | 2.12 ± 0.23
IMQEAGLRAVRKNRYVI [RPT3] | 2.89 ± 0.076
INCNKETIENVKLQMIK [ECM29] | 3.21 ± 0.097
INELFKKYTQNNPLLLI [RPN8] | 1.85 ± 0.071
INELVLENFKSYAGKQV [SMC4] | 2.69 ± 0.075
INESAENFSNGISLVME [MED1] | 3.35 ± 0.11
INGWELTKAQKYLDQVL [RPL17B] | 2.74 ± 0.2
INHKINNKITQLIAKNV [SIR3] | 1.58 ± 0.063
INIKYLRLDGHTKSDER [SNF2] | 3.1 ± 0.083
ININEFALPAGSPKSAT [CDC53] | 2.71 ± 0.067

Sequence | protein stability index
INKMVGNRYLEKRLNLR [RPL21A] | 2.65 ± 0.085
INSAPDFTQEDELRKQE [ISW2] | 3.24 ± 0.084
INSTKNGKDNNNESNKN [MED2] | 3.08 ± 0.052
INVDNDPFFAQSEDLSH [YML103C/NUP188] | 3.15 ± 0.055
IPAWFLNRQNDITDGKD [RPS18A] | 2.91 ± 0.17
IPISSETTIDDLPISST [SMC1] | 2.68 ± 0.047
IPLGKNVVVKWQGKPVF [RIP1] | 3.36 ± 0.26
IPMDFIRNVLVTVDQYV [SSN2] | 1.13 ± 0.047
IPNLTAKPFQVTKEYFQ [FAS1] | 2.61 ± 0.051
IPPPMPKNQQYRAFGSI [MED7] | 2.04 ± 0.083
IPRHLQLAIRNDDELNK [HTA1] | 3.02 ± 0.093
IPSQRGTSTTHGSISPQ [SIR3] | 2.39 ± 0.033
IPTLAIDSVEVETNTTV [RPB3] | 2.82 ± 0.22
IPVEILVRRLSDIKQGY [PRE9] | 2.95 ± 0.08
IPVGDNTVVGISGDISD [PRE4] | 2.98 ± 0.13
IPYAAKLLFQELMAMNI [RPB2] | 1.64 ± 0.13
IPYGPDFDNIEFKKIPR [SEC65] | 3.21 ± 0.093
IQAVFCLTKFQDEEQTE [YCG1] | 2.23 ± 0.057
IQCQIDKLYIHFVQEEP [RGR1] | 2.09 ± 0.093
IQFGAKNMFEKKASKVT [ISW2] | 2.66 ± 0.07
IQKESTLHLVLRLRGGG [RPS31] | 2.64 ± 0.12
IQLLDENVGTRLLPINV [MED11] | 3.09 ± 0.16
IQLSTVNRQSPLFFVDL [RGR1] | 1.59 ± 0.08
IQNKKIQEQRVKDKQSK [RPN8] | 1.97 ± 0.11
IQPTAKVVYIQRRSWRQ [DIS3] | 1.52 ± 0.1
